# Experimental data reported in US9987370B2, “Self-assembling drug amphiphiles and methods for synthesis and use” (priority 2012, dated 2018).
# Side chains are listed from the residue outwards. Ends that are not written are not given here. Peptide text beside a SMILES is read from it. * marks the point of attachment. X1 = CC(=O)N[C@@H](CSSCCCC(=O)O[C@@H](C(=O)O[C@H]1C[C@@]2(O)[C@@H](OC(=O)c3ccccc3)[C@@H]3[C@]4(OC(C)=O)CO[C@@H]4C[C@H](O)[C@@]3(C)C(=O)[C@H](OC(C)=O)C(=C1C)C2(C)C)[C@@H](NC(=O)c1ccccc1)c1ccccc1)C(=O)*; Paclitaxel(2'-OCO(CH2)3S) = CC(=O)O[C@H]1C(=O)[C@@]2(C)[C@H]([C@H](OC(=O)c3ccccc3)[C@]3(O)C[C@H](OC(=O)[C@H](OC(=O)CCCS*)[C@@H](NC(=O)c4ccccc4)c4ccccc4)C(C)=C1C3(C)C)[C@]1(OC(C)=O)CO[C@@H]1C[C@@H]2O; buSS = disulfanylbutanoate linker
# Key:
# [1] = test system: co-culture of KB-3-1 and KB-V1 cervical cancer cells; conditions: co-culture KB-3-1 and KB-V1, 48 hours
# Method: Cell viability was determined by SRB assay after 48 hours incubation with the appropriate drug-containing media. […] Data are given as mean±s.d. (n=3).
# Cell Culture. KB-3-1 and KB-V1 ovarian cancer cells were cultured in DMEM (Invitrogen) containing 10% fetal bovine serum (FBS, Invitrogen) and 1% of antibiotics (Invitrogen), and 1 μg/mL vinblastine was added for KB-V1 to maintain its multidrug resistance. The two cell types were incubated at 37° C. in an Oasis humidified incubator with a 5% CO2 atmosphere (Caron, Marietta, Ohio).
# Cytotoxicity Protocol. KB-3-1, KB-V1 or their co-culture (1:1) were seeded onto 96-well plate (5×10^3 cells/well) and allowed to attach overnight. […] Medium containing the same concentration of PXL or/and CPT in the form of free drugs or conjugates (dCPT-Sup35 or dPXL-Sup35) were also used to incubate the cells, with non-treated cells (solvent only) as the control group. After 48 hours incubation, the cell viability was determined using the SRB method according to the manufacturer's protocol (TOX-6, Sigma, St. Louis, Mo.).
# [2] = test system: PXL-resistant KB-V1 cervical cancer cells; test: Cytotoxicity study of dual drug amphiphiles by SRB; format: cell-based; conditions: KB-V1, 48 hours
# Method: (§1) Both cell lines are sensitive to CPT. […] (n=3).
# (§2) Cytotoxicity Study. The activity of the synthesized conjugates to prohibit proliferative ability was assessed through the determination of a dose-response relationship against PXL-sensitive and -resistant cervical cancer cell lines—KB-3-1 and KB-V1, respectively. Both cell lines were individually incubated for 48 hours with the conjugates alone or in combination, either individually to determine their sensitivity to the conjugates (FIGS. 46 a-b) and also as a co-culture to mimic a heterogeneous tumor (FIG. 46 c). […] This antagonistic behavior has been previously observed, and is suspected to arise from an up-regulation of anti-apoptosis genes on co-treatment with CPT that would inhibit the mechanism by which PXL exerts its cytotoxicity.
# [3] = test system: PXL-sensitive KB-3-1 cervical cancer cells; test: Cytotoxicity study of dual drug amphiphiles by SRB; format: cell-based; conditions: KB-3-1, 48 hours
# Method: as §1, §2
# [4] = PXL release study in PBS buffer at 37° C.; format: physicochemical
# Method: FIG. 32 depicts the PXL-buSS-Tau release curve in PBS buffer under 37° C.
# PXL release studies were carried out at 100 μM and 5 μM concentrations in PBS buffer at 37° C. (FIG. 32). […] After 2 hrs, around 70% of the PXL-buSS-Tau was cleaved by glutathione at 5 μM while only 40% paclitaxel was released at 100 μM, again illustrating the protective effect that self-assembly into nanostructures has upon the biodegradable linker.
# [5] = test system: human breast cancer MCF-7; format: cell-based
# Method: (§3) To evaluate anti-tumor efficacy, the cytotoxicity of PXL-buSS-Tau towards human breast cancer MCF-7, non-small cell lung cancer A549, and human prostate cancer PC-3 FLU cell lines was determined (FIG. 33).
# [6] = test system: non-small cell lung cancer A549; format: cell-based, human
# Method: as §3
# [7] = test system: human prostate cancer PC-3 FLU; test: Cytotoxicity of PXL-buSS-Tau by SRB assay; format: cell-based; conditions: 48 hours
# Method: as §3
# [8] = Critical micellization concentration of CPT drug amphiphiles by a fluorescence method; format: physicochemical; conditions: 10 mM sodium phosphate
# Method: FIGS. 5A-5C depicts the fluorometric determination of the CMC values for mCPT-buSS-Tau (a), dCPT-buSS-Tau (b) and qCPT-buSS-Tau (c) in 10 mM sodium phosphate.
# The critical micellization concentrations of mCPT-buSS-Tau, dCPT-buSS-Tau and qCPT-buSS-Tau were determined to be 207 nM, 74 nM and 53 nM, respectively, by a fluorescence method (FIG. 5). These very low values are in the range of macromolecular amphiphiles and are an important property of these conjugates. A high value would lead to rapid dissociation of the nanostructure when diluted upon introduction into the bloodstream, whereas a low value would impart greater stability to the assembly during circulation.
compound,measurement,setting,value
"CC[C@@]1(O)C(=O)OCc2c1cc1n(c2=O)Cc2cc3ccccc3nc2-1 [CPT, camptothecin]",activity,[1],moderate activity
"CC(=O)O[C@H]1C(=O)[C@@]2(C)[C@H]([C@H](OC(=O)c3ccccc3)[C@]3(O)C[C@H](OC(=O)[C@H](O)[C@@H](NC(=O)c4ccccc4)c4ccccc4)C(C)=C1C3(C)C)[C@]1(OC(C)=O)CO[C@@H]1C[C@@H]2O [PXL, paclitaxel, reference compound]",sensitivity of cells / activity,[2],no activity
CC(=O)N[C@@H](CSSCCCC(=O)O[C@@H](C(=O)O[C@H]1C[C@@]2(O)[C@@H](OC(=O)c3ccccc3)[C@@H]3[C@]4(OC(C)=O)CO[C@@H]4C[C@H](O)[C@@]3(C)C(=O)[C@H](OC(C)=O)C(=C1C)C2(C)C)[C@@H](NC(=O)c1ccccc1)c1ccccc1)C(=O)NCCCC[C@H](NC(=O)[C@H](CSSCCCC(=O)O[C@@H](C(=O)O[C@H]1C[C@@]2(O)[C@@H](OC(=O)c3ccccc3)[C@@H]3[C@]4(OC(C)=O)CO[C@@H]4C[C@H](O)[C@@]3(C)C(=O)[C@H](OC(C)=O)C(=C1C)C2(C)C)[C@@H](NC(=O)c1ccccc1)c1ccccc1)NC(C)=O)C(=O)NCC(=O)N[C@@H](CC(N)=O)C(=O)N[C@@H](CC(N)=O)C(=O)N[C@@H](CCC(N)=O)C(=O)N[C@@H](CCC(N)=O)C(=O)N[C@@H](CC(N)=O)C(=O)N[C@@H](Cc1ccc(O)cc1)C(=O)N[C@@H](CCCCN)C(=O)N[C@@H](CCCCN)C(N)=O [dPXL-Sup35] (Ac-C(Paclitaxel(2'-OCO(CH2)3S))K(X1)GNNQQNYKK-NH2),sensitivity of cells / activity,[2],no activity
same,sensitivity of cells,[3],nano-molar sensitivity
"PXL-buSS-Tau (Ac-CGVQIVYKK; also: PXL-buSS conjugate, attachment site not given here)",PXL-buSS-Tau cleaved by glutathione,"[4]; 5 μM, after 2 hrs, PBS, 37° C., glutathione",around 70%
same,release at 5 μM compared with 100 μM,"[4]; 5 μM, presence of glutathione",much faster release than that of 100 μM
same,release of paclitaxel,"[4]; 100 μM, after 30 minutes, presence of glutathione",Significant release of paclitaxel
same,paclitaxel released,"[4]; 100 μM, after 2 hrs, PBS, 37° C., glutathione",40%
same,cytotoxic effect,[5],strong cytotoxic effect
same,cytotoxic effect,[6],strong cytotoxic effect
same,cytotoxic effect,[7],strong cytotoxic effect
mCPT-buSS-Tau: one camptothecin linked via disulfanylbutanoate (buSS) linker to cysteine-functionalized Tau peptide CGVQIVYKK (C([buSS-camptothecin])GVQIVYKK; not fully specified (C-terminus)),critical micellization concentration,[8],207 nM
